Experiment: soluble on expression in E. coli; label from the status in PepcDB or PDB records

Row | Sequence | soluble on expression in E. coli
1 | MTELDQFWPACLARLEAELSSQQFNTWIKPLTAEAGDEGIALFAPNRFIMQFIKDRFLPRIEELAVELVGELPVELRLGAPTARPAAPVAGNSQPKAKEPAKAAASAPAAPSPAKQAAVKAIGGSHESTRLNPSFTFDTLVTGKGNQLARAAAMQIAENPGDQAYNPLFVYGGVGLGKTHLIQAIGNHVFQKNPQAKIRYIHAERYVADIMRAYQHKAFDEFKRYYHSLDLLLIDDIQFFAGKNRTQEEFFYAFNALIEGGKQVIMTCDSYPKQIEGMEERLISRFSWGLTVEIQPPELEMRVAILMKKAEADSIKLEHNVAFFIAQNVRSNVRELEGALKRVVAYARFTSQNITLELVKEALKDILAAGNRQVTVDAIQKTVAEYYKIKLSDMHSKKRSRDIARPRQVAMALAKELTQLSLPNIGDAFGGRDHTTVLHACKTITEMRASDADIAHDYEALLSMLRNLEHHHHHH | not soluble
2 | MKRSSVFSFLVAFLLVAGCSHKMDNKTVAGDVSAKTVQTAPVTTEPAPEKEEPKQEPAPVVEEKPAVESGTIIASIYFDFDKYEIKESDQETLDEIVQKAKENHMQVLLEGNTDEFGSSEYNQALGVKRTLSVKNALVIKGVEKDMIKTISFGETKPKCAQKTRECYKENRRVDVKLMK | not soluble
3 | MILLIGATGNIGLPIVKSLQKKGAEVRLLVHNEKSSAKIQALGQMEIFIGDFRNDSDLRESMKGCSSVFHVVPPFTKDEAEIGYRVIENARHAGVEHIVFNSVLHPQLRKMEHHAQKLLVEEAVIESGLAFNIIQPAMLMQNLLMVWRTIRENGIYPVISSPDKKMSLIDSEDIGEAVANILTDPSLRNATFELAGSDLLTYKEMALIISEELNQPVKVVPVDDKGREELARKQGMSSYAIHAFLKMAKHYDEHGFSGSNPLVLTSILKRPPNSYRDFIRRLIAEDGGI | not soluble
4 | MGSDKIHHHHHHMTQPFKDAISICKTILRNGYDAYVVNMRLQSELMAEDKRMEIDLACECDFDEIARLFPNATRSDEEGVLAMLEEGGVAHRFYLTDTEESSYPDRTLMRITPHMVARLQALGKAHSSLTLPYGAAAPHDSDDFESFDKGIIRLRGLPDETLRRNYLLAVRAIRYAANLDMEIDPVTWIAIVRSAGRVLDYVPVSDIVAEWQMVEAETMWKFVRLLFDAQLLHGLLPEVAALARVRQSRNDSGDTETVLDHTIECMRHYPEEGFHHDWYGTLAMLFHDVGKLFTADFHDGQWTFYQHHRVGAKVTRRLLHRLHLPAQEVDLICHLVRHHMRFHFMLTDKGIRRFAALDEYPRLMEMARADIKARDGSYTYFNHNQKYLERAATPEQMLEPLLNGNEIMQHTGLHPGPQVGLIRDALLNAQVTGAVADVNDAVAFIKEYKRQYFS | not soluble
5 | MANFMSKEAPFWKVKKLEEMSLSEWESLCDGCGLCCLHKVEDDDTGDIYATSVACRLLDSETCRCRNYVHRKSIVPDCIFLNLATIKTVRWLPENCAYRLIYEGKDLYWWHPLVSGNYQTVHQTQFSARGQIEIYEDELSSEEDYLQYITGILCEGR | not soluble
6 | MTYKGYLIDLDGTIYKGKDRIPAGEDFVKRLQERQLPYILVTNNTTRTPEMVQEMLATSFNIKTPLETIYTATLATIDYMNDMKRGKTAYVIGETGLKKAVAEAGYREDSENPAYVVVGLDTNLTYEKLTLATLAIQKGAVFIGTNPDLNIPTERGLLPGAGAILFLLEKATRVKPIIIGKPEAVIMNKALDRLGVKRHEAIMVGDNYLTDITAGIKNDIATLLVTTGFTKPEEVPALPIQPDFVLSSLAEWDFDER | soluble
7 | MDKIIKSIAQSGAFRAYVLDSTETVALAQEKHNTLSSSTVALGRTLIANQILAANQKGDSKITVKVIGDSSFGHIISVADTKGHVKGYIQNTGVDIKKTATGEVLVGPFMGNGHFVTIIDYGTGNPYTSTTPLITGEIGEDFAYYLTESEQTPSAIGLNVLLDENDKVKVAGGFMVQVLPGASEEEIARYEKRLQEMPAISHLLASKNHVDALLEAIYGDEPYKRLSEEPLSFQCDCSRERFEAALMTLPKADLQAMIDEDKGAEIVCQFCGTKYQFNESDLEAIISDKA | not soluble
8 | MTSLVVPGLDTLRQWLDDLGMSFFECDNCQALHLPHMQNFDGVFDAKIDLIDNTILFSAMAEVRPSAVLPLAADLSAINASSLTVKAFLDMQDDNLPKLVVCQSLSVMQGVTYEQFAWFVRQSEEQISMVILEANAHQLLLPTDDEGQNNVTENYFLH | soluble
9 | DRWIRPRGAFGGLPSLKSSFVLSESTVPGTNETVKTFLPYGSVINYYGYVKPGQAPDGLVDGNKKAYYLYVWIPAVIAEMGVRMISPTGEIGEPGDGDLVSDAFKAATPEEKSMPHWFDTWIRVERMSAIMPDQIAKAAKAKPVQKLDDDDDGDDTYKEERHNKYNSLTRIKIPNPPKSFDDLKNIDTKKLLVRGLYRISFTTYKPGEVKGSFVASVGLLFPPGIPGVSPLIHSNPEELQKQAIAAEESLKKAASDATK | soluble
10 | MGSDKIHHHHHHMLEVIDVWKKYPPKTQALREVSFEAEEGSITAVFGENGSGKTTLLKVIASFLIPDRGKVLIDSVNIVEKPSFAVEKVSISTGYERSFYYRLSVEENLKFFGMLNDLLGKTLKRETERVMKELGLLECRKKRYMELSTGYKKRVDVARALMKKASIYIFDEPCSGVDLRTRLKIHEIMKRLKESGRIVIFASHDLEDLKIADRVIVLKKGEKVLEFSPKKEDLAAVLRGILEIQAFPGD | not soluble
11 | MNHTSFRAIVVNETENHQFVRKVVEREVSSLPEGDVFIQVHYSSLNYKDALSATGNKGVTRTYPHTPGIDAAGVVVSSEDATIKAGDQVIVTGYDLGMNTSGGFGEYIRVPSSWVVPLPEGMSLKESMMYGTAGFTAALSVYKLIGAGVKPSMGDVLVTGATGGVGSVAVSILSKLGFNVVGATGKMEEEDMLLRLGAKKVIHRAELNDESGSPMLKGIYAGVIDTVGGHMLETALKTVKYGGCVTTCGNVAGQELQTTVYPFILRGISLLGIDSVQCPVDVRRDVWTLLAKEWGNKELLSYTEECTLEELEKKFALILQGKLKGRTVVKI | not soluble
12 | MIKDVHRCFVIACIPGKKPYTLALSDFISATAACFKSGIPLKTLKESLENMKETYFRPLKVEEFELLRTWLTLVYKTLKEVLFPLTENKRGICDTDDSIYDEFVKSIVTAIREGYSMEKIRLEQVVTNTKTQPRTEFESALLSQSTRIVVQTVQIAKEFSSEQ | not soluble
13 | MRVDELRVDERIKSTLKERGIESFYPPQAEALKSGILEGKNALISIPTASGKTLIAEIAMVHRILTQGGKAVYIVPLKALAEEKFQEFQDWEKIGLRVAMATGDYDSKDEWLGKYDIIIATAEKFDSLLRHGSSWIKDVKILVADEIHLIGSRDRGATLEVILAHMLGKAQIIGLSATIGNPEELAEWLNAELIVSDWRPVKLRRGVFYQGFVTWEDGSIDRFSSWEELVYDAIRKKKGALIFVNMRRKAERVALELSKKVKSLLTKPEIRALNELADSLEENPTNEKLAKAIRGGVAFHHAGLGRDERVLVEENFRKGIIKAVVATPTLSAGINTPAFRVIIRDIWRYSDFGMERIPIIEVHQMLGRAGRPKYDEVGEGIIVSTSDDPREVMNHYIFGKPEKLFSQLSNESNLRSQVLALIATFGYSTVEEILKFISNTFYAYQRKDTYSLEEKIRNILYFLLENEFIEISLEDKIRPLSLGIRTAKLYIDPYTAKMFKDKMEEVVKDPNPIGIFHLISLTPDITPFNYSKREFERLEEEYYEFKDRLYFDDPYISGYDPYLERKFFRAFKTALVLLAWINEVPEGEIVEKYSVEPGDIYRIVETAEWLVYSLKEIAKVLGAYEIVDYLETLRVRVKYGIREELIPLMQLPLVGRRRARALYNSGFRSIEDISQARPEELLKIEGIGVKTVEAIFKFLGKNVKISEKPRKSTLDYFLKS | soluble
14 | MLRREFGPKYTAKINEAEENWQARAEAIKKGKKQNTWDLFEERGYVKDTAGTKEHIAELMRTRRIGAYVGIDPTAPSLHVGHLLPLMPLFWMYLEGYKAFTLIGGSTAKIGDPTGRLKSRDHLSSSDATMNMTKIHYQLKKLWENVDTQMRARGYEADWARKRGIVNNNHWWNKQPMLEVLRRVGHALRIGPMLSRDTVKNKMTQGDGVSFAEFTYPIMQGWDWFELFYQQGVQMQIGGSDQYGNIISGLEVVKAARESEPDPQERKYVTPKTALDECVGFTVPLLTDSSGAKFGKSAGNAIWLDPYQTSVFDFYGYFVRRSDQEVENLLKLFTFMPISEITKTMEEHIKDPSKRVAQHTLAREVVTLVHGKQEASAAEDQHRMMYTGQMTI | soluble
15 | MGSDKIHHHHHHMTWHEVNDVIVITLPEIFDMNANLGYLTREKNECMYEIENNIITKVIAIGEIRSLVQVSVINNKQMIVQFLNDSRPVEQWKREEIVKYIHEWFDLDNDLTPFYEMAKADPLLKMPARKFYGLRVIGIPDLFEALCWGVLGQQINLAFAYSLKKQFVEAFGDSIEWNGKKYWVFPPYERIARLTPTDLADIKMTVKKSEYIIGIARLMASGELSREKLMKMNFKDAEKNLIKIRGIGPWTANYVLMRCLRFPTAFPIDDVGLIHSIKILRNMNRKPTKDEILEISVPWKEWQSYATFYLWRVLY | not soluble
16 | MGSDKIHHHHHHMLVENSHTPDALAEAFATVDGLMATGKFARSLSVMLPFVQTGELDAGLLDRTADCFFEMRDYENAVNVMRHVTATWPDDPSAWGKLGLMLQTKGDLLGAEQAFEEVLKRDPNSIPALTALNGIETFSVDSLYAQRLMSLSEREDLDAKHRALIHYALAQIAHGSGEAEVAFTLFQSARNEVAGPFAPAIFDEMVAEQEALFEPRPASEDASLLPKLVFIGGMPMSGTGLVDRILAQHPGVFSVGAKTALSRTHGAIRMHLAKTDRPCNYWDWMEHLSAEEIDIFRQYYLERALGGQVAGGKTIVDAHPLGCLEFGLAQFLFPEAKFVFMSRHPMDTALANIASNVLNGNALASRTEWIAQVMRTVYSSATVYASKLGDSMRLQSYEALVQNSEREIGLLLEHAGLEYNAACLTPNALCDVPQIATMLGQEELSTETQNQWLPYEEQLQGFYEQLGGERWVSAWEDFDKTLR | not soluble
17 | MGSDKIHHHHHHMNYLVISPFYPENFQPFTIELAKKEGVTVLGIGQEPYDQLPEELRNALTEYFRVEDLENIDEVKRAAAFLIYKHGPIDRVESHNEYWLENDAALREQFNIFGAKPKHLKKTKFKSEMKKYFKKAGVPVVPGVVVKSERDFGRALKNVGFPMIAKPDNGVGASGTFKIENKEDFDRFVETWDGATIYFLEKFVNSSIITTYDGLLDHEGNVVFETGLTYVHTPLELMLSRKDNAYFIEKELDPQLVKYGRAIIKAFGMRERFFHIEFFKDGDDYIAIEYNNRMAGGFTVEAYNYAHSIDLFRDYANVATGGTVEERRFEPQYCLVATRRDTTEYVHSADDIHQKFAGKIKTVKRMPDAFAELQGNDAYLLVTESKKELDEMIAYIGLTK | not soluble
18 | MELNMLYLFTASNDSAIKNLEATIEKIYPISTCLADLDADTVTKLKDNELHENVCMWGATPGSSNVDRWEKLKEGDRILAYSKGEFKFFGTIFAKTHNPDVARKI | not soluble
19 | SWMEEVIKLCGRELVRAQIAICGMSTWS | soluble
20 | MGDSILSQAEIDALLNGDSDTKDEPTPGIASDSDIRPYDPNTQRRVVRERLQALEIINERFARQFRMGLFNLLRRSPDITVGAIRIQPYHEFARNLPVPTNLNLIHLKPLRGTGLVVFSPSLVFIAVDNLFGGDGRFPTKVEGREFTHTEQRVINRMLKLALEGYSDAWKAINPLEVEYVRSEMQVKFTNITTSPNDIVVNTPFHVEIGNLTGEFNICLPFSMIEPLRELLVNPPLENSRHEDQNWRDNLVRQVQHSELELVANFADIPLRLSQILKLKPGDVLPIEKPDRIIAHVDGVPVLTSQYGTVNGQYALRVEHLINPILNSLNEEQPK | not soluble

From the DeepSol protein solubility set
